Square brackets hold non-standard residues; d marks the D form. Side chains are listed from the residue outwards. Ends that are not written are not given here. * marks the point of attachment. X2 = 7‑methoxycoumarin‑3‑carboxylic acid, COc1ccc2cc(C(=O)*)c(=O)oc2c1; Dansyl = CN(C)c1cccc2c(S(=O)(=O)*)cccc12; Ahx = NCCCCCC(=O)O
Tests used:
human D-dimer protein [1] = target: T1, human D-dimer protein (human, UniProt P02671 124-216; P02675 164-491; P02679 89-437); assay: SPR surface competition, D-dimer immobilized; competitor 4-D10L17-GPRP at 100 nM; GPRP in running buffer, competing with 100 nM 4-D10L17-GPRP (Biacore)
T1 construct: Bought from Abcam Inc. UK; the chain make-up here is from general knowledge
T1 sequence (looked up) 1: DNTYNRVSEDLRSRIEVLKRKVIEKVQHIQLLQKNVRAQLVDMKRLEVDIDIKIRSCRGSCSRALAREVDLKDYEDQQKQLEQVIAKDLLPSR
T1 sequence (looked up) 2: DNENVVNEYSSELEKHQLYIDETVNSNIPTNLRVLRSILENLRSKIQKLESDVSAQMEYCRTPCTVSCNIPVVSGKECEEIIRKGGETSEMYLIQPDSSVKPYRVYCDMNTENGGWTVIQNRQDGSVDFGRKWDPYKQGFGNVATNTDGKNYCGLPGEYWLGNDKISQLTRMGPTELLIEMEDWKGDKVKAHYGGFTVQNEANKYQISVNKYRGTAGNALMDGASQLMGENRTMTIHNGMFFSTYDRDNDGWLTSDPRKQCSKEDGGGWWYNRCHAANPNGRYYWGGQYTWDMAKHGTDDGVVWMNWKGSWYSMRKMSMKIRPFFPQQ
T1 sequence (looked up) 3: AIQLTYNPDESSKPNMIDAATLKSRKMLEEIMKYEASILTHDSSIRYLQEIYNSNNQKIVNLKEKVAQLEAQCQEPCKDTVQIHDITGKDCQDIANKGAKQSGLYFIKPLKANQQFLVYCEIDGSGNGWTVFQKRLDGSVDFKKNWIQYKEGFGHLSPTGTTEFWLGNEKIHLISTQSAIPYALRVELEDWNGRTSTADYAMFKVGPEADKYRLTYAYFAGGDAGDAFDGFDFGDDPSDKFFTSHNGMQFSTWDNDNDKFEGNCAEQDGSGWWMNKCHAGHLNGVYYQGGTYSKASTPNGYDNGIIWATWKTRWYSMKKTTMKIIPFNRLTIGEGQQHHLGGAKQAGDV
Protocol: (§1) The interactions between the D-dimer protein and binders as well as surface competition experiments were studied using a Biacore 2000 instrument (GE Healthcare Bio-Sciences, Uppsala, Sweden), equilibrated at 25° C. The CM5 sensor chip (Research grade, Biacore) and reagents were from GE Healthcare Bio-Sciences, Uppsala, Sweden. For direct interaction studies between immobilized D-dimer protein and polypeptide conjugates, HBS-EP was used as running buffer. […] For minimum sample dispersion, the samples were injected at a flow rate of 50 uL/min. After 10 min of dissociation the surface was regenerated by 30 s pulse injection of 10 mM glycine at pH 3.0. All injections were serial and first passed over the deactivated dextran surface and then over the immobilized surfaces. Blank injections were included for each measurement series and subtracted from the data. Experiments were performed at least twice, unless stated otherwise. […] The dissociation constants, Kd, were obtained using the Biaevaluation program version 3.2 (Biacore) and assuming a simple 1:1 Langmuir binding mechanism.

human D-dimer protein [2] = target: T1, human D-dimer protein; assay: SPR screen (Biacore 2000), D-dimer immobilized on CM5, 1:1 Langmuir model
Protocol: (§2) The protein was then further diluted with 10 mM NaOAc at pH 4.6 to give a concentration of about 32 μg/mL. The D-dimer protein was covalently immobilized on the sensor chip surface by amine coupling with HBS-EP (10 mM HEPES, pH 7.4, 150 mM NaCl, 3 mM EDTA and 0.005% P20) (GE Healthcare Bio-Sciences, Uppsala, Sweden) as a running buffer. The CM5 sensor chip surface was activated for 7 min by injecting a solution of EDC/NHS (200 mM 1-ethyl-3-(3-dimethylaminopropyl)-carbodiimide hydrochloride/50 mM N-hydroxysuccinimide) (GE Healthcare Bio-Sciences, Uppsala, Sweden). The D-dimer protein was injected for 1.5 min at flow rate of 5 uL/min over the activated surface and followed by 7-min pulse of 1M ethanolamine at pH 8.5 to deactivate remaining active ester.
as §1

human D-dimer protein [3] = target: T1, human D-dimer protein; assay: SPR (Biacore 2000), D-dimer immobilized on CM5, binders at 5-160 nM, 1:1 Langmuir model
[4] = target: T2, human Carbonic Anhydrase II (human, UniProt P00918 2-260); assay: SPR (Biacore 2000), HCAII immobilized on CM5, 1:1 model
Protocol: The sixteen polypeptide conjugates were also characterized by SPR biosensor analysis (Biacore®, GE Healthcare), using a Biacore® 2000 instrument, Biacore® CM-5 chip and HBS-EP buffer pH 7.4 (Biacore®, GE Healthcare) with addition of 1% DMSO for the interaction studies. Peptide solutions were prepared by dilution in buffer from 20 μM stock solutions in DMSO. HCAII was immobilized on the chip using standard EDC/NHS coupling in Acetate buffer pH 5.5. The binders were allowed to flow over the chip at 7 concentrations in the range from 1 nM to 500 nM and the interactions were evaluated using a 1:1 binding model (BiaEvaluation).
SPR measurements were performed on a Biacore® 2000 instrument, with the proteins immobilized on a Biacore® CM-5 sensor chips (GE Healthcare). All interaction studies were performed in Biacore® HSB-EP buffer with the addition of 1% (v/v) DMSO. HCAII (Sigma, lyophilized powder) was dissolved in Acetate buffer pH 5.5 to a 2 mg/mL solution. HCAII were conjugated to the surface by EDC/NHS coupling reactions in Acetate buffer pH 5.5. Solutions of the polypeptide binders were prepared in HBS-EP buffer from stock solutions of 20 μM in DMSO and allowed to flow over the surface at 20 μL/min, with blank injections after every series. All samples were adjusted to contain 1% (v/v) DMSO. Injections were made for 30 s and dissociation was allowed to proceed for 3000 s. […]

[5] = target: T3, human Carbonic Anhydrase I (human, UniProt P00915 2-261); assay: SPR, HCAI immobilized on CM5, 1:1 model
T3 construct: also called HCAI; HCA I
Protocol: (§3) HCAI and HCAII were immobilized in different flowcells on a CM-5 (Biacore) chip using standard EDC/NHS coupling in Acetate buffer at pH 5.5.
(§4) SPR measurements were performed on a Biacore® 2000 instrument, with the proteins immobilized on a Biacore® CM-5 sensor chips (GE Healthcare). All interaction studies were performed in Biacore® HSB-EP buffer with the addition of 1% (v/v) DMSO. HCAII (Sigma, lyophilized powder) was dissolved in Acetate buffer pH 5.5 to a 2 mg/mL solution. HCAII were conjugated to the surface by EDC/NHS coupling reactions in Acetate buffer pH 5.5. Solutions of the polypeptide binders were prepared in HBS-EP buffer from stock solutions of 20 μM in DMSO and allowed to flow over the surface at 20 μL/min, with blank injections after every series. All samples were adjusted to contain 1% (v/v) DMSO. Injections were made for 30 s and dissociation was allowed to proceed for 3000 s. Evaluation was performed using a 1:1 binding model.

[6] = target: T2, human Carbonic Anhydrase II; assay: SPR, ratio of the dissociation constants for HCAI and HCAII
Source text: as §3

[7] = target: T3, human Carbonic Anhydrase I; assay: SPR, HCAI immobilized on CM5, 1:1 model; the heads Koff and Kon seem to be swapped
Protocol: as §3, §4

[8] = target: T2, human Carbonic Anhydrase II; assay: SPR, HCAII immobilized on CM5, 1:1 model
Protocol: as §3, §4

[9] = target: T2, human Carbonic Anhydrase II; assay: fluorescence titration, 50 nM fluorescein labelled binder, HCAII 20 pM to 1 µM
Protocol: The fluorescence titrations were carried out using polypeptides conjugated to a dansyl group rather than a 7-methoxycoumarin to avoid overlap with fluorescein, but a fluorophore is present in each sequence of the scaffold library to simplify identification and quantification throughout synthesis and purification. […] Fluorescence intensities of protein-binder mixtures were compared to intensities of binders without protein. The analysis was performed in 50 mM Hepes buffer at pH 7.4 containing 150 mM NaCl. HCAII was added in 25 steps over a concentration range from 20 pM to 1 μM to the binder at 50 nM concentration and the results analyzed by curve fitting.

human D-dimer protein [10] = target: T1, human D-dimer protein; assay: SPR (Biacore 2000) screen, D-dimer immobilized on a CM5 chip, binder at 1, 10 and 100 nM, 3 min injection, 10 min clearance
Protocol: as §2
The interactions between the D-dimer protein and binders as well as surface competition experiments were studied using a Biacore 2000 instrument (GE Healthcare Bio-Sciences, Uppsala, Sweden), equilibrated at 25° C. The CM5 sensor chip (Research grade, Biacore) and reagents were from GE Healthcare Bio-Sciences, Uppsala, Sweden. For direct interaction studies between immobilized D-dimer protein and polypeptide conjugates, HBS-EP was used as running buffer. […] For minimum sample dispersion, the samples were injected at a flow rate of 50 uL/min. […]

T3 sequence (P00915 2-261 limits assumed): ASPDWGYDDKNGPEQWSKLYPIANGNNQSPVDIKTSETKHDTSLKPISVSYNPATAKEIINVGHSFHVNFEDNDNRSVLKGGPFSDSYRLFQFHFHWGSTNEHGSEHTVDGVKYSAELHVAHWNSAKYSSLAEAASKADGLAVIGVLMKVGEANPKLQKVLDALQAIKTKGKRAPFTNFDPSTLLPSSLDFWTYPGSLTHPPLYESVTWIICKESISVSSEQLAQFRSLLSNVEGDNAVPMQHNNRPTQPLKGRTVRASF

B1: GPRP peptide (peptide)
peptide: GPRP
notes: also called GPRP tetrapeptide
Human D-dimer protein [1]
  IC50: ~50000 nM

B2: 2D37L34_GPRP (designed binder)
chain: Ac-NAADLEAAIRHLAERLAARGPVDAAQLAEQLAAK([Gly-Ahx-Pro-Arg-Pro-Gly])FEKFARAG
modifications: also: reporter on Lys37
notes: 'D' in the name not explained
Human D-dimer protein [2]
  Kd: 13600 nM

B3: 3D37L34_GPRP (designed binder)
chain: Ac-NAADLEAAIRHLAERLAARGPVDAAQLAEQLARK([Gly-Ahx-Pro-Arg-Pro-Gly])FEKFARAG
modifications: also: reporter on Lys37
notes: 'D' in the name not explained; a Cys in the loop region may be present
Human D-dimer protein [2]
  Kd: 1150 nM
Human D-dimer protein [3]
  Kd: 15.4 nM

B4: 1D37L34_GPRP (designed binder)
chain: Ac-NEADLEAAIRHLAERLEARGPADAAQLAEQLAAK([Gly-Ahx-Pro-Arg-Pro-Gly])FEKFARAG
modifications: also: reporter on Lys37
notes: 'D' in the name not explained
Human D-dimer protein [2]
  Kd: 5070 nM

B5: 4-C37L34-B (designed binder)
chain: Ac-NAADLEARIRHLRERLAARGPRDAAQLAEQLARK([Ahx-benzenesulphonamide carboxylic acid])FEK(X2)FARAG
modifications: not fully specified (C-terminus)
[4]
  Kd: 15 nM
[5]
  Kd: 470 nM
[6]
  factor of discrimination between HCAI and HCAII: ~30 fold
[7]
  kon: 4400 M⁻¹ s⁻¹
[8]
  Kd: 17 nM

B6: 2D10L17_GPRP (designed binder)
chain: Ac-NAADLEAAIKHLAEALK([Gly-Ahx-Pro-Arg-Pro-Gly])ARGPVDAAQLAEQLARAFEAFARAG
modifications: also: reporter on Lys10
notes: 'D' in the name not explained
Human D-dimer protein [2]
  Kd: 10300 nM

B7: 1-C10L17-B with dansyl and fluorescein (form for fluorescence titration) (designed binder)
chain: Ac-NAADLEAAIK(Dansyl)HLAEALK([Ahx-benzenesulphonamide carboxylic acid])ERGPEDC(N‑(5-fluoresceinyl)maleimide)EQLAEQLARAFEAFARAG
[9]
  Kd: 5 nM

B8: 2D15L8_GPRP (designed binder)
chain: Ac-NEADLEAK([Gly-Ahx-Pro-Arg-Pro-Gly])IRHLAEKLAARGPVDAAQLAEQLARAFEAFARAG
modifications: also: reporter on Lys15
notes: 'D' in place of 'C' in the name is not explained; tied to 2-C15L8 by the rest of the name
Human D-dimer protein [2]
  Kd: 10400 nM

B9: 2D25L22_GPRP (designed binder)
chain: Ac-NEADLEAAIRHLAEALAARGPK([Gly-Ahx-Pro-Arg-Pro-Gly])DAKQLAEQLARAFEAFARAG
modifications: also: reporter on Lys25
notes: 'D' in the name not explained
Human D-dimer protein [2]
  Kd: 16100 nM

B10: 3-C15L8-B with dansyl and fluorescein (form for fluorescence titration) (designed binder)
chain: Ac-NAADLEAK([Ahx-benzenesulphonamide carboxylic acid])IRHLAEK(Dansyl)LAARGPVDC(N‑(5-fluoresceinyl)maleimide)AQLAEQLARRFEAFARAG
[9]
  Kd: 29 nM

B11: 3-C15L8-B (designed binder)
chain: Ac-NAADLEAK([Ahx-benzenesulphonamide carboxylic acid])IRHLAEK(X2)LAARGPVDAAQLAEQLARRFEAFARAG
[4]
  Kd: 43 nM
[5]
  Kd: 390 nM
[8]
  Kd: 60 nM

B12: 1D15L8_GPRP (designed binder)
polypeptide: Ac-NEADLEAKIRHLAEKLEARGPEDAEQLAEQLARAFEAFARAG
ligand peptide, branch on Lys8: GPRP[Ahx]G
modifications: not fully specified (some residues); also: reporter group on Lys15, bond at chain A 8 to a chain's C-terminus via 6-aminocaproic acid-Gly
Human D-dimer protein [10]
  binding result: no binding (tested: 100 nM)

Source: US20130261013A1 (MODPRO, published 2013)
